T1: FcγRIIa(R) extracellular domain with C-terminal His tag (human, UniProt P12318 34-217)
T1 construct: extracellular domain; R131 allotype; also called 2aR; CD32
T1 sequence: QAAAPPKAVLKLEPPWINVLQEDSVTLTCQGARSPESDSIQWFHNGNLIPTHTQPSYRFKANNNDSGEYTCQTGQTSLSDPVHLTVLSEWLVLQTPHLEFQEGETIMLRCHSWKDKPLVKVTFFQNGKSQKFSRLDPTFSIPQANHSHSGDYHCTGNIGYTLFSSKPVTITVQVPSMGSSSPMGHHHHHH

T2: FcγRIIa(H) extracellular domain with C-terminal His tag (human, UniProt P12318 34-217)
T2 construct: extracellular domain; H131 allotype; also called 2aH; CD32
T2 sequence: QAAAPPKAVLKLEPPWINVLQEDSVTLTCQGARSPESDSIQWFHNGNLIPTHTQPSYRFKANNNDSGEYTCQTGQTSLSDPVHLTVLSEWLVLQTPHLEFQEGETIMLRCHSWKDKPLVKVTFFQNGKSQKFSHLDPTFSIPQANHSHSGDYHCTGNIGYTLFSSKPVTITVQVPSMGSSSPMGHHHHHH

T3: FcγRIIb extracellular domain with C-terminal His tag (human, UniProt P31994 43-217)
T3 construct: extracellular domain; also called 2b; CD32
T3 sequence: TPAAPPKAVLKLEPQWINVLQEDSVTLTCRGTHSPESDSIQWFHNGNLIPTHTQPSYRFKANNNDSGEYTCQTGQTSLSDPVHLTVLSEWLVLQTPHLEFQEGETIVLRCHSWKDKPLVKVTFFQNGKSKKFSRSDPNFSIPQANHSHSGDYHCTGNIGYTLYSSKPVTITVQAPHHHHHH


How the values were obtained:
Assay in all cases: SPR; % of GpH7-A5/GpH7-B3/GpL16-k0
[1] = molecular target: T4, FcγRIa extracellular domain with C-terminal His tag (human, UniProt P12314 16-292)
T4 construct: extracellular domain; also called 1a; CD64
T4 sequence (P12314 other isoform, or with tags, fused parts or gaps): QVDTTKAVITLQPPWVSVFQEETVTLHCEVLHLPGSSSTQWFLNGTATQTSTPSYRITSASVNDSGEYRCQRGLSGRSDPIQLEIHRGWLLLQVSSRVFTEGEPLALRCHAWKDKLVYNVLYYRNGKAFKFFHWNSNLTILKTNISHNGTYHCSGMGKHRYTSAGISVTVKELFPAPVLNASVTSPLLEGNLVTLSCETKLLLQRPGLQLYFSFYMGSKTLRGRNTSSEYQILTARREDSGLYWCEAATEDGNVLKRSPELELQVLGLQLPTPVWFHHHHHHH

[2] = molecular target: T1, FcγRIIa(R) extracellular domain with …
[3] = molecular target: T2, FcγRIIa(H) extracellular domain with …
[4] = molecular target: T3, FcγRIIb extracellular domain with …
[5] = molecular target: T5, FcγRIIIa extracellular domain with C-terminal His tag (human, UniProt P08637 17-208)
T5 construct: extracellular domain; also called 3a; CD16
T5 sequence (P08637 other isoform, or with tags, fused parts or gaps): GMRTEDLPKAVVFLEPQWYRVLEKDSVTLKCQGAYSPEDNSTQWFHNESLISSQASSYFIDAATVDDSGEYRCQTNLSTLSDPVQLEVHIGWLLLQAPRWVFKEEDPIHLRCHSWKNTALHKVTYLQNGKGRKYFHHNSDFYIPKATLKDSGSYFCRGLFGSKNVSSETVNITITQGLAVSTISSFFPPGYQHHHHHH

Row | Binder | He/Con 1a [1] [%] | He/Con 2aR [2] [%] | He/Con 2aH [3] [%] | He/Con 2b [4] [%] | He/Con 3a [5] [%]
1 | GpH7-A5/GpH7-B3 variant A330_12R/GpL16-k0 (antibody, human IgG1, kappa, heterodimerized IgG1 (He Ab), mutation in one H chain only; also called He Ab) heavy 1: not shown heavy 2: not shown light: DIVMTQSPLSLPVTPGEPASISCQASESLVHSNRNTYLHWYLQKPGQSPQLLIYKVSNRFSGVPDRFSGSGSGTDFTLKISRVEAEDVGVYYCSQNTHVPPTFGQGTKVEIERTVAAPSVFIFPPSDEQLKSGTASVVCLLNNFYPREAKVQWKVDNALQSGNSQESVTEQDSKDSTYSLSSTLTLSKADYEKHKVYACEVTHQGLSSPVTKSFNRGEC | 103 | 116 | 116 | 95.8 | 77.3
2 | GpH7-A5/GpH7-B3 variant E333_01G/GpL16-k0 (antibody, human IgG1, kappa, heterodimerized IgG1 (He Ab), mutation in one H chain only; also called He Ab) heavy 1: not shown heavy 2: not shown light: DIVMTQSPLSLPVTPGEPASISCQASESLVHSNRNTYLHWYLQKPGQSPQLLIYKVSNRFSGVPDRFSGSGSGTDFTLKISRVEAEDVGVYYCSQNTHVPPTFGQGTKVEIERTVAAPSVFIFPPSDEQLKSGTASVVCLLNNFYPREAKVQWKVDNALQSGNSQESVTEQDSKDSTYSLSSTLTLSKADYEKHKVYACEVTHQGLSSPVTKSFNRGEC | 97.2 | 127 | 112 | 105 | 101
3 | GpH7-A5/GpH7-B3 variant A330_15Y/GpL16-k0 (antibody, human IgG1, kappa, heterodimerized IgG1 (He Ab), mutation in one H chain only; also called He Ab) heavy 1: not shown heavy 2: not shown light: DIVMTQSPLSLPVTPGEPASISCQASESLVHSNRNTYLHWYLQKPGQSPQLLIYKVSNRFSGVPDRFSGSGSGTDFTLKISRVEAEDVGVYYCSQNTHVPPTFGQGTKVEIERTVAAPSVFIFPPSDEQLKSGTASVVCLLNNFYPREAKVQWKVDNALQSGNSQESVTEQDSKDSTYSLSSTLTLSKADYEKHKVYACEVTHQGLSSPVTKSFNRGEC | 108 | 114 | 106 | 107 | 122
4 | GpH7-A5/GpH7-B3 variant E333_03V/GpL16-k0 (antibody, human IgG1, kappa, heterodimerized IgG1 (He Ab), mutation in one H chain only; also called He Ab) heavy 1: not shown heavy 2: not shown light: DIVMTQSPLSLPVTPGEPASISCQASESLVHSNRNTYLHWYLQKPGQSPQLLIYKVSNRFSGVPDRFSGSGSGTDFTLKISRVEAEDVGVYYCSQNTHVPPTFGQGTKVEIERTVAAPSVFIFPPSDEQLKSGTASVVCLLNNFYPREAKVQWKVDNALQSGNSQESVTEQDSKDSTYSLSSTLTLSKADYEKHKVYACEVTHQGLSSPVTKSFNRGEC | 99.4 | 135 | 112 | 120 | 106
5 | GpH7-A5/GpH7-B3 variant E333_02A/GpL16-k0 (antibody, human IgG1, kappa, heterodimerized IgG1 (He Ab), mutation in one H chain only; also called He Ab) heavy 1: not shown heavy 2: not shown light: DIVMTQSPLSLPVTPGEPASISCQASESLVHSNRNTYLHWYLQKPGQSPQLLIYKVSNRFSGVPDRFSGSGSGTDFTLKISRVEAEDVGVYYCSQNTHVPPTFGQGTKVEIERTVAAPSVFIFPPSDEQLKSGTASVVCLLNNFYPREAKVQWKVDNALQSGNSQESVTEQDSKDSTYSLSSTLTLSKADYEKHKVYACEVTHQGLSSPVTKSFNRGEC | 97.7 | 128 | 115 | 108 | 108
6 | GpH7-A5/GpH7-B3 variant E333_04F/GpL16-k0 (antibody, human IgG1, kappa, heterodimerized IgG1 (He Ab), mutation in one H chain only; also called He Ab) heavy 1: not shown heavy 2: not shown light: DIVMTQSPLSLPVTPGEPASISCQASESLVHSNRNTYLHWYLQKPGQSPQLLIYKVSNRFSGVPDRFSGSGSGTDFTLKISRVEAEDVGVYYCSQNTHVPPTFGQGTKVEIERTVAAPSVFIFPPSDEQLKSGTASVVCLLNNFYPREAKVQWKVDNALQSGNSQESVTEQDSKDSTYSLSSTLTLSKADYEKHKVYACEVTHQGLSSPVTKSFNRGEC | 96.9 | 139 | 116 | 122 | 104
